Experimental data published in article PMC9523724.

Molecular target: commercial orange peel PME (pectin methylesterase, Sigma p5400) (orange (peel))

relative activity of MePMEI1 (loss of PME activity with MePMEI1 against the initial PME activity) at pH 4.5, 5.5, 6.5, 7.5 and 8.5; highest at pH 5.5, falling with rising pH: 31%
Substance: recombinant MePMEI1 protein (pectin methylesterase inhibitor 1 of Manihot esculenta) (natural protein)
